Laboratory results: the supplement of paper PMC10567573

B1: TOR1AIP2 (parent)
chain: AGQEGEDTLRRRLLAPEAGSHPQQ

Variants of: B1
Assay: protein stability index of a GFP-peptide fusion (GPS, HEK-293T) (PSI 1-6); higher = more stable
Conditions: c terminus: a fixed tail appended
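Also: lentivirally expressed fusions sorted by FACS into six bins by GFP to DsRed ratio, PSI derived from sequencing read proportions per bin multiplied by bin number.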

Row | Variant | protein stability index
1 | AGQEGEDTLRRRLLAPHAGSHPQQ [E17H] | 3.34
2 | AGQEGEDTLRRRLLAPCAGSHPQQ [E17C] | 3.65
3 | AGQEGEDTLRRRLLAPDAGSHPQQ [E17D] | 2.2
4 | AGQEGEDTLRRRLLAPMAGSHPQQ [E17M] | 2.79
5 | AGQEGEDTLRRRLLAPRAGSHPQQ [E17R] | 4.68
6 | AGQEGEDTLRRRLLAPSAGSHPQQ [E17S] | 4.34
7 | AGQEGEDTLRRRLLAPLAGSHPQQ [E17L] | 2.13
8 | AGQEGEDTLRRRLLAPPAGSHPQQ [E17P] | 5.13
9 | AGQEGEDTLRRRLLAPGAGSHPQQ [E17G] | 3.5
10 | AGQEGEDTLRRRLLAPFAGSHPQQ [E17F] | 3.31
11 | AGQEGEDTLRRRLLAPQAGSHPQQ [E17Q] | 2.63
12 | AGQEGEDTLRRRLLAPYAGSHPQQ [E17Y] | 2.44
13 | AGQEGEDTLRRRLLAPAAGSHPQQ [E17A] | 4.22
14 | AGQEGEDTLRRRLLAPIAGSHPQQ [E17I] | 4.11
15 | AGQEGEDTLRRRLLAPTAGSHPQQ [E17T] | 4.53
16 | AGQEGEDTLRRRLLAPVAGSHPQQ [E17V] | 4.57
17 | AGQEGEDTLRRRLLAPKAGSHPQQ [E17K] | 3.86
18 | AGQEGEDTLRRRLLAPNAGSHPQQ [E17N] | 3.16
19 | AGQEGEDTLRRRLLAPEAKSHPQQ [G19K] | 1.86
20 | AGQEGEDTLRRRLLAPEAWSHPQQ [G19W] | 1.31
21 | AGQEGEDTLRRRLLAPEALSHPQQ [G19L] | 1.72
22 | AGQEGEDTLRRRLLAPEAPSHPQQ [G19P] | 2.69
23 | AGQEGEDTLRRRLLAPEAHSHPQQ [G19H] | 2.22
24 | AGQEGEDTLRRRLLAPEAMSHPQQ [G19M] | 3

Row | Variant | protein stability index
25 | AGQEGEDTLRRRLLAPEAESHPQQ [G19E] | 2.15
26 | AGQEGEDTLRRRLLAPEANSHPQQ [G19N] | 2.27
27 | AGQEGEDTLRRRLLAPEADSHPQQ [G19D] | 2.83
28 | AGQEGEDTLRRRLLAPEATSHPQQ [G19T] | 2.58
29 | AGQEGEDTLRRRLLAPEAFSHPQQ [G19F] | 1.86
30 | AGQEGEDTLRRRLLAPEAISHPQQ [G19I] | 2.54
31 | AGQEGEDTLRRRLLAPEAVSHPQQ [G19V] | 2.37
32 | AGQEGEDTLRRRLLAPEACSHPQQ [G19C] | 2.15
33 | AGQEGEDTLRRRLLAPEAYSHPQQ [G19Y] | 1.75
34 | AGQEGEDTLRRRLLAPEARSHPQQ [G19R] | 2.49
35 | AGQEGEDTLRRRLLAPEAASHPQQ [G19A] | 2.23
36 | AGQEGEDTLRRRLLAPEAQSHPQQ [G19Q] | 2.13
37 | AGQEGEDTLRRRLLRPEAGSHPQQ [A15R] | 5.03
38 | AGQEGEDTLRRRLLHPEAGSHPQQ [A15H] | 5.18
39 | AGQEGEDTLRRRLLQPEAGSHPQQ [A15Q] | 4.9
40 | AGQEGEDTLRRRLLDPEAGSHPQQ [A15D] | 5.39
41 | AGQEGEDTLRRRLLTPEAGSHPQQ [A15T] | 3.68
42 | AGQEGEDTLRRRLLKPEAGSHPQQ [A15K] | 5.44
43 | AGQEGEDTLRRRLLLPEAGSHPQQ [A15L] | 5.02
44 | AGQEGEDTLRRRLLWPEAGSHPQQ [A15W] | 4.49
45 | AGQEGEDTLRRRLLCPEAGSHPQQ [A15C] | 1.34
46 | AGQEGEDTLRRRLLVPEAGSHPQQ [A15V] | 5.17
47 | AGQEGEDTLRRRLLFPEAGSHPQQ [A15F] | 4.87
48 | AGQEGEDTLRRRLLPPEAGSHPQQ [A15P] | 5.46

Row | Variant | protein stability index
49 | AGQEGEDTLRRRLLYPEAGSHPQQ [A15Y] | 4.12
50 | AGQEGEDTLRRRLLNPEAGSHPQQ [A15N] | 4.55
51 | AGQEGEDTLRRRLLMPEAGSHPQQ [A15M] | 4.55
52 | AGQEGEDTLRRRLLSPEAGSHPQQ [A15S] | 3
53 | AGQEGEDTLRRRLLIPEAGSHPQQ [A15I] | 4.48
54 | AGQEGEDTLRRRLLGPEAGSHPQQ [A15G] | 4.34
55 | AGQEGEDTLRRRLLEPEAGSHPQQ [A15E] | 5.18
56 | AGQEGEDTLRRRLLAPEAGSHPTQ [Q23T] | 1.61
57 | AGQEGEDTLRRRLLAPEAGSHPDQ [Q23D] | 2.75
58 | AGQEGEDTLRRRLLAPEAGSHPEQ [Q23E] | 2.18
59 | AGQEGEDTLRRRLLAPEAGSHPVQ [Q23V] | 2.69
60 | AGQEGEDTLRRRLLAPEAGSHPSQ [Q23S] | 1.85
61 | AGQEGEDTLRRRLLAPEAGSHPLQ [Q23L] | 2.45
62 | AGQEGEDTLRRRLLAPEAGSHPHQ [Q23H] | 2.01
63 | AGQEGEDTLRRRLLAPEAGSHPMQ [Q23M] | 2.24
64 | AGQEGEDTLRRRLLAPEAGSHPPQ [Q23P] | 3.1
65 | AGQEGEDTLRRRLLAPEAGSHPWQ [Q23W] | 1.81
66 | AGQEGEDTLRRRLLAPEAGSHPIQ [Q23I] | 1.73
67 | AGQEGEDTLRRRLLAPEAGSHPGQ [Q23G] | 1.78
68 | AGQEGEDTLRRRLLAPEAGSHPRQ [Q23R] | 2.54
69 | AGQEGEDTLRRRLLAPEAGSHPAQ [Q23A] | 2.36
70 | AGQEGEDTLRRRLLAPEAGSHPNQ [Q23N] | 2.17
71 | AGQEGEDTLRRRLLAPEAGSHPKQ [Q23K] | 2.74
72 | AGQEGEDTLRRRLLAPEAGSHPYQ [Q23Y] | 2.01

Row | Variant | protein stability index
73 | AGQEGEDTLRRRLLAPEAGSHPCQ [Q23C] | 2.54
74 | AGQEGEDTLRRRLLAPEAGGHPQQ [S20G] | 2.25
75 | AGQEGEDTLRRRLLAPEAGEHPQQ [S20E] | 2.91
76 | AGQEGEDTLRRRLLAPEAGVHPQQ [S20V] | 1.73
77 | AGQEGEDTLRRRLLAPEAGRHPQQ [S20R] | 2.28
78 | AGQEGEDTLRRRLLAPEAGAHPQQ [S20A] | 2.45
79 | AGQEGEDTLRRRLLAPEAGLHPQQ [S20L] | 2.09
80 | AGQEGEDTLRRRLLAPEAGDHPQQ [S20D] | 3.33
81 | AGQEGEDTLRRRLLAPEAGWHPQQ [S20W] | 2.08
82 | AGQEGEDTLRRRLLAPEAGMHPQQ [S20M] | 2.68
83 | AGQEGEDTLRRRLLAPEAGPHPQQ [S20P] | 2.53
84 | AGQEGEDTLRRRLLAPEAGQHPQQ [S20Q] | 2.35
85 | AGQEGEDTLRRRLLAPEAGTHPQQ [S20T] | 2.1
86 | AGQEGEDTLRRRLLAPEAGHHPQQ [S20H] | 2.1
87 | AGQEGEDTLRRRLLAPEAGKHPQQ [S20K] | 1.97
88 | AGQEGEDTLRRRLLAPEAGYHPQQ [S20Y] | 2.18
89 | AGQEGEDTLRRRLLAPEAGNHPQQ [S20N] | 2.02
90 | AGQEGEDTLRRRLLAPEAGIHPQQ [S20I] | 2.08
91 | AGQEGEDTLRRRLLAPEAGFHPQQ [S20F] | 1.73
92 | AGQEGEDTLRRRLLAPEAGCHPQQ [S20C] | 1.62
93 | AGQEGEDTLRRRLLAWEAGSHPQQ [P16W] | 3.99
94 | AGQEGEDTLRRRLLAKEAGSHPQQ [P16K] | 5.01
